Biological target: Fetuin (denatured; sialylated complex N-linked glycans) (UniProt P12763)
Experiment: fetuin pull-down from cell lysates, low salt buffer, SDS-PAGE band quantification

Sequence of Fetuin (denatured; sialylated complex N-linked glycans) (P12763 19-359, one chain of several): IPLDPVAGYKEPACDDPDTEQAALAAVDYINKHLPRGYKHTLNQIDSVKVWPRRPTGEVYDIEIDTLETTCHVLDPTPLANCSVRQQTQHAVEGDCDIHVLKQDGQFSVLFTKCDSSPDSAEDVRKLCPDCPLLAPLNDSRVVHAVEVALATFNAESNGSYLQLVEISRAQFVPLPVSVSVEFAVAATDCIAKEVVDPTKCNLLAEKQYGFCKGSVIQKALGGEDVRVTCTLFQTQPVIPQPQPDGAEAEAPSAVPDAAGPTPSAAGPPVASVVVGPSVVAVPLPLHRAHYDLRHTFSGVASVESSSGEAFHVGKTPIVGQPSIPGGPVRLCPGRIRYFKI

Which fold ability to be pulled down by immobilized fetuin, against wild type Fbs does the source give for “Fbs mutant S155A (from UniProt Q9UK22 113-296)” here?
The fold ability to be pulled down by immobilized fetuin, against wild type Fbs was 1.5 times.

Which fold capacity to interact with fetuin, against wild type Fbs does the source give for “Fbs mutant S155G (from UniProt Q9UK22 113-296)” here?
The fold capacity to interact with fetuin, against wild type Fbs was 2 fold.
